Data as given in paper PMC6965034, “PAK Kinases Target Sortilin and Modulate Its Sorting” (Molecular and Cellular Biology, 2019).

Target: T1, GST-tagged PAK1 (Y270-H545) (human, UniProt Q13153-1 270-545)
T1 construct: human PAK1 C terminus with the entire kinase domain, residues Y270-H545; vector pGEX4T1; also called GST-PAK1; GST-PAK1 kinase domain; source: E. coli BL21, purified; not shown: GST, N-terminal, kept
Test: ITC; 25 μM GST-PAK1 in the cell titrated with 100 μM sortilin-cd or peptide in 28 steps of 10 μl at 34°C; 100 mM NaCl, 50 mM Tris-HCl pH 7.5 (pH 7.4 in the results); one set of sites model
Conditions: both partners purified

T1 sequence (Q13153 270-545): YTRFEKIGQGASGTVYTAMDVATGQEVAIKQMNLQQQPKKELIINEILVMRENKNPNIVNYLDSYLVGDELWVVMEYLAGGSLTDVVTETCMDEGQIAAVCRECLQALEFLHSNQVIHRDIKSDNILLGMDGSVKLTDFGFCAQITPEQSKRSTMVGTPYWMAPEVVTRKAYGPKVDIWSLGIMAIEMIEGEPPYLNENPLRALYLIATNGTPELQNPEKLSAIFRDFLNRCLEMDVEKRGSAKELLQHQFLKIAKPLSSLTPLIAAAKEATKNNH

B1: complete sortilin cytoplasmic domain (K779-E831), GST tag removed (domain or fragment, human, UniProt Q99523-1 779-831, looked up)
chain: KKYVCGGRFLVHRYSVLQQHAEANGVDGVDALDTASHTNKSGYHDDSDEDLLE
notes: human sortilin cytoplasmic domain K779-E831 (K1-E53 of the cytoplasmic domain); vector pGEX4T1; also called sortilin-cd; wt sortilin-cd; source: E. coli BL21, purified, GST tag removed by thrombin cleavage; not shown: GST, N-terminal, cleaved
Q: With B1 as the binder, how does the Kd read?
A: ~2000 nM
